From the Immune Epitope Database (IEDB)

How the values were obtained:
HLA-A*02:03 = test: IEDB peptide-MHC binding, purified MHC/competitive/radioactivity; filed as Kd, often an IC50 or EC50 that approximates it; ≥ and ≤ were set here for values at or beyond the usual limits of such assays; conditions: source organism: Homo sapiens
HLA-A*02:01 = test: as above
HLA-A*02:02 = test: as above; conditions: source organism: Homo sapiens
HLA-B*15:01 = test: as above; conditions: source organism: Vaccinia virus Copenhagen
HLA-A*32:01 = test: as above; conditions: source organism: Vaccinia virus Copenhagen
HLA-B*08:01 = test: as above; conditions: source organism: Vaccinia virus Copenhagen
HLA-B*15:03 = test: as above
HLA-A*30:01 = test: as above; conditions: source organism: Vaccinia virus Copenhagen
HLA-B*44:02 = test: as above
HLA-B*18:01 = test: as above
HLA-B*44:03 = test: as above
HLA-B*40:02 = test: as above
HLA-B*45:01 = test: as above
HLA-B*40:01 = test: as above
HLA-A*11:01 = test: IEDB peptide-MHC binding, purified MHC/competitive/fluorescence; ≥ and ≤ were set here for values at or beyond the usual limits of such assays
HLA-A*02:06 = test: IEDB peptide-MHC binding, purified MHC/competitive/radioactivity; filed as Kd, often an IC50 or EC50 that approximates it; ≥ and ≤ were set here for values at or beyond the usual limits of such assays; conditions: source organism: Homo sapiens
HLA-A*68:02 = test: as above; conditions: source organism: Homo sapiens
[1] = source organism: Vaccinia virus Copenhagen
[2] = source organism: Mammarenavirus guanaritoense
[3] = source organism: Vaccinia virus WR
[4] = source organism: Mammarenavirus juninense
[5] = source organism: SARS coronavirus Tor2
[6] = source organism: Mammarenavirus lassaense

Q: KLTKDFSAL was tested. Which Kd (HLA-A*02:03) did it give?
A: 34.2 nM

Q: What about the Kd (HLA-A*02:01; source organism: Homo sapiens) of the same sequence?
A: 550 nM

Q: What about the Kd (HLA-A*02:02) of the same sequence?
A: 20.5 nM

Q: With KTMAVTYEL as the sequence, how does the Kd (HLA-B*15:01) read?
A: 5.51 nM

Q: And the Kd (HLA-A*32:01)?
A: 0.578 nM

Q: And the Kd (HLA-B*08:01)?
A: 18.7 nM

Q: What about the Kd (HLA-B*15:03; [1]) of the same sequence?
A: 34.5 nM

Q: What about the Kd (HLA-A*30:01) of the same sequence?
A: 10900 nM

Q: What does the source list for LENAQPGLL?
A: Kd (HLA-B*44:02; [2]): 6080 nM; Kd (HLA-B*18:01; [2]): 10700 nM; Kd (HLA-B*44:03; [2]): 13800 nM; Kd (HLA-B*40:02; [2]): 182 nM; Kd (HLA-B*45:01; [2]): ≥ 48000 nM; Kd (HLA-B*40:01; [2]): 1030 nM

Q: How did the IC50 (HLA-A*11:01; [3]) turn out when LGGILPWTK was run?
A: 536 nM

Q: What does the source list for LLHQSSDKFV?
A: Kd (HLA-A*02:03): 78.3 nM; Kd (HLA-A*02:06): 13500 nM; Kd (HLA-A*02:01; source organism: Homo sapiens): 808 nM; Kd (HLA-A*02:02): 14.4 nM; Kd (HLA-A*68:02): 2970 nM

Q: Which results are given for MDYLILKNL?
A: Kd (HLA-B*44:02; [4]): 11000 nM; Kd (HLA-B*18:01; [4]): ≥ 53700 nM; Kd (HLA-B*44:03; [4]): 2740 nM; Kd (HLA-B*40:02; [4]): 18.5 nM; Kd (HLA-B*45:01; [4]): ≥ 33200 nM; Kd (HLA-B*40:01; [4]): ≥ 33900 nM

Q: For PEYFNSVCRL, which Kd (HLA-B*44:02; [5]) is on record?
A: ≥ 32400 nM

Q: What about the Kd (HLA-B*18:01; [5]) of the same sequence?
A: ≥ 70500 nM

Q: What about the Kd (HLA-B*44:03; [5]) of the same sequence?
A: 9390 nM

Q: What about the Kd (HLA-B*40:02; [5]) of the same sequence?
A: 1250 nM

Q: What about the Kd (HLA-B*45:01; [5]) of the same sequence?
A: ≥ 33300 nM

Q: And the Kd (HLA-B*40:01; [5])?
A: 2830 nM

Q: How did the IC50 (HLA-A*11:01; source organism: Vaccinia virus) turn out when QKFPYEGGK was run?
A: ≥ 140000 nM

Q: With RLVRPFLVV as the sequence, how does the Kd (HLA-B*15:03; [3]) read?
A: 15.9 nM

Q: Which Kd (HLA-A*32:01) does the source give for RQYMFYKIF here?
A: 19.3 nM

Q: And the Kd (HLA-B*15:03; [1])?
A: 0.0698 nM

Q: SEGNATPGGY was tested. Which Kd (HLA-B*44:02; [6]) did it give?
A: 19500 nM

Q: What about the Kd (HLA-B*18:01; [6]) of the same sequence?
A: 18700 nM

Q: What about the Kd (HLA-B*44:03; [6]) of the same sequence?
A: 7250 nM

Q: What about the Kd (HLA-B*40:02; [6]) of the same sequence?
A: ≥ 70800 nM

Q: And the Kd (HLA-B*45:01; [6])?
A: ≥ 70000 nM

Q: And the Kd (HLA-B*40:01; [6])?
A: ≥ 64200 nM

Q: SIPNFNQYEA was tested. Which Kd (HLA-A*02:01; source organism: Lassa virus Josiah) did it give?
A: ≥ 25000 nM

Q: How did the Kd (HLA-A*02:01; source organism: Homo sapiens) turn out when SLADEAEVHL was run?
A: 29 nM

Q: For SLFEGIDFYT, which Kd (HLA-A*02:01; source organism: Homo sapiens) is on record?
A: 1.1 nM

Q: How did the Kd (HLA-B*44:02; [5]) turn out when TEFACVVAEA was run?
A: 1440 nM

Q: What about the Kd (HLA-B*18:01; [5]) of the same sequence?
A: 60.8 nM

Q: What about the Kd (HLA-B*44:03; [5]) of the same sequence?
A: 393 nM

Q: What about the Kd (HLA-B*40:02; [5]) of the same sequence?
A: 14.6 nM

Q: What about the Kd (HLA-B*45:01; [5]) of the same sequence?
A: 8.98 nM

Q: And the Kd (HLA-B*40:01; [5])?
A: 1510 nM

Q: TMVNSLTYF was tested. Which Kd (HLA-B*15:03; [3]) did it give?
A: 0.126 nM

Q: TQALQLFLR was tested. Which IC50 (HLA-A*11:01; source organism: Sudan ebolavirus) did it give?
A: 2530 nM

Q: For VEFHLDGEVL, which Kd (HLA-B*44:02; [5]) is on record?
A: 3760 nM

Q: And the Kd (HLA-B*18:01; [5])?
A: 3230 nM

Q: And the Kd (HLA-B*44:03; [5])?
A: 935 nM

Q: What about the Kd (HLA-B*40:02; [5]) of the same sequence?
A: 140 nM

Q: And the Kd (HLA-B*45:01; [5])?
A: 6950 nM

Q: And the Kd (HLA-B*40:01; [5])?
A: 0.877 nM

Q: VENPDILRV was tested. Which Kd (HLA-B*44:02; [5]) did it give?
A: 5140 nM

Q: And the Kd (HLA-B*18:01; [5])?
A: 9070 nM

Q: What about the Kd (HLA-B*44:03; [5]) of the same sequence?
A: 250 nM

Q: What about the Kd (HLA-B*40:02; [5]) of the same sequence?
A: 1270 nM

Q: What about the Kd (HLA-B*45:01; [5]) of the same sequence?
A: 474 nM

Q: What about the Kd (HLA-B*40:01; [5]) of the same sequence?
A: ≥ 21800 nM

Q: How did the Kd (HLA-B*44:02; [5]) turn out when WEILKFLIT was run?
A: 9580 nM

Q: And the Kd (HLA-B*18:01; [5])?
A: 2900 nM

Q: And the Kd (HLA-B*44:03; [5])?
A: 1450 nM

Q: What about the Kd (HLA-B*40:02; [5]) of the same sequence?
A: 2.09 nM

Q: What about the Kd (HLA-B*45:01; [5]) of the same sequence?
A: 4990 nM

Q: And the Kd (HLA-B*40:01; [5])?
A: 4360 nM

Q: How did the Kd (HLA-A*02:01; source organism: Homo sapiens) turn out when WITQCFLPV was run?
A: 173 nM

Q: With YVLPRRGPRL as the sequence, how does the Kd (HLA-A*02:01; source organism: Hepatitis C virus subtype 3a) read?
A: 3570 nM
